Laboratory results published in patent publication US20160136236A1.

Legend:
[1] = biological target: wild type (WT) human low density lipoprotein receptor (LDLR) (human) (UniProt P01130); assay: flow cytometry competition; 0.5 ug/mL LDL-BODIPY with 0 ug/mL unlabeled LDL on HEK293 cells transfected with LDLR mRNA
[2] = biological target: wild type (WT) human low density lipoprotein receptor (LDLR) (human) (UniProt P01130); assay: flow cytometry competition; 0.5 ug/mL LDL-BODIPY with 1 ug/mL unlabeled LDL on HEK293 cells transfected with LDLR mRNA
[3] = biological target: wild type (WT) human low density lipoprotein receptor (LDLR) (human) (UniProt P01130); assay: flow cytometry competition; 0.5 ug/mL LDL-BODIPY with 10 ug/mL unlabeled LDL on HEK293 cells transfected with LDLR mRNA
[4] = biological target: wild type (WT) human low density lipoprotein receptor (LDLR) (human) (UniProt P01130); assay: flow cytometry competition; 0.5 ug/mL LDL-BODIPY with 0.1 ug/mL unlabeled LDL on HEK293 cells transfected with LDLR mRNA
[5] = biological target: wild type (WT) human low density lipoprotein receptor (LDLR) (human) (UniProt P01130); assay: flow cytometry competition; 0.5 ug/mL LDL-BODIPY with 0.5 ug/mL unlabeled LDL on HEK293 cells transfected with LDLR mRNA
[6] = biological target: wild type (WT) human low density lipoprotein receptor (LDLR) (human) (UniProt P01130); assay: flow cytometry competition; 0.5 ug/mL LDL-BODIPY with 100 ug/mL unlabeled LDL on HEK293 cells transfected with LDLR mRNA
[7] = biological target: wild type (WT) human low density lipoprotein receptor (LDLR) (human) (UniProt P01130); assay: flow cytometry competition; 0.5 ug/mL LDL-BODIPY with 500 ug/mL unlabeled LDL on HEK293 cells transfected with LDLR mRNA
[8] = biological target: wild type (WT) human low density lipoprotein receptor (LDLR) (human) (UniProt P01130); assay: flow cytometry competition; 0.5 ug/mL LDL-BODIPY with 0.01 ug/mL unlabeled LDL on HEK293 cells transfected with LDLR mRNA

wild type (WT) human low density lipoprotein receptor (LDLR) (human), sequence (P01130 22-860 limits assumed): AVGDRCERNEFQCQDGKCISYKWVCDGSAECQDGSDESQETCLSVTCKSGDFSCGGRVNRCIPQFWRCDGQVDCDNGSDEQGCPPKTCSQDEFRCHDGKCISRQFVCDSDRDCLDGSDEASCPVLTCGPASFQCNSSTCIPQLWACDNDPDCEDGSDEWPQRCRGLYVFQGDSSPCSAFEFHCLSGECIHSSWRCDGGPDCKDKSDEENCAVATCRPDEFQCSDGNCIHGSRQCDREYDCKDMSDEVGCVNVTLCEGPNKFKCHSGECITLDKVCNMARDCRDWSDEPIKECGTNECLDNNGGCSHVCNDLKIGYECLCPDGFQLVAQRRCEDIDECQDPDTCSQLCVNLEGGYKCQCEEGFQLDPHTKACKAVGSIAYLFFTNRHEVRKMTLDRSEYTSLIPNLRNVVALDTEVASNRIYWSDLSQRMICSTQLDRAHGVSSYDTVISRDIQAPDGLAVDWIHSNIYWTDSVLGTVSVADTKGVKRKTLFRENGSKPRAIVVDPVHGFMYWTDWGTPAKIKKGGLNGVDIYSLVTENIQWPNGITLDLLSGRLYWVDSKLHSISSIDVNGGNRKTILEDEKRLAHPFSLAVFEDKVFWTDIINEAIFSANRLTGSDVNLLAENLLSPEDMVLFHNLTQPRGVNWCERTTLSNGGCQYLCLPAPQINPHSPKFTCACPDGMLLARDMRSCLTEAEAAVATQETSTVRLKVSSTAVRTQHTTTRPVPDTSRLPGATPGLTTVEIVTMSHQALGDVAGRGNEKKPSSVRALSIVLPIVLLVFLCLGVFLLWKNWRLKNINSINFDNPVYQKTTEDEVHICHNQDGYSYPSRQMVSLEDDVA

Labeled cells detected (%) [1]: 100%
Labeled cells detected (%) [2]: 76%
Labeled cells detected (%) [3]: 48.4%
Labeled cells detected (%) [4]: 59%
Labeled cells detected (%) [5]: 64.1%
Labeled cells detected (%) [6]: 3.2%
Labeled cells detected (%) [7]: 0.9%
Labeled cells detected (%) [8]: 97.7%
Substance: unlabeled LDL (low density lipoprotein), P04114 28-4563
